Data taken from US20210130453A1 (AstraZeneca / MedImmune, published 2021).

T1: recombinant human LIFR (human, UniProt P42702 45-833, limits assumed)
T1 construct: also called hLIFR
T1 sequence (looked up): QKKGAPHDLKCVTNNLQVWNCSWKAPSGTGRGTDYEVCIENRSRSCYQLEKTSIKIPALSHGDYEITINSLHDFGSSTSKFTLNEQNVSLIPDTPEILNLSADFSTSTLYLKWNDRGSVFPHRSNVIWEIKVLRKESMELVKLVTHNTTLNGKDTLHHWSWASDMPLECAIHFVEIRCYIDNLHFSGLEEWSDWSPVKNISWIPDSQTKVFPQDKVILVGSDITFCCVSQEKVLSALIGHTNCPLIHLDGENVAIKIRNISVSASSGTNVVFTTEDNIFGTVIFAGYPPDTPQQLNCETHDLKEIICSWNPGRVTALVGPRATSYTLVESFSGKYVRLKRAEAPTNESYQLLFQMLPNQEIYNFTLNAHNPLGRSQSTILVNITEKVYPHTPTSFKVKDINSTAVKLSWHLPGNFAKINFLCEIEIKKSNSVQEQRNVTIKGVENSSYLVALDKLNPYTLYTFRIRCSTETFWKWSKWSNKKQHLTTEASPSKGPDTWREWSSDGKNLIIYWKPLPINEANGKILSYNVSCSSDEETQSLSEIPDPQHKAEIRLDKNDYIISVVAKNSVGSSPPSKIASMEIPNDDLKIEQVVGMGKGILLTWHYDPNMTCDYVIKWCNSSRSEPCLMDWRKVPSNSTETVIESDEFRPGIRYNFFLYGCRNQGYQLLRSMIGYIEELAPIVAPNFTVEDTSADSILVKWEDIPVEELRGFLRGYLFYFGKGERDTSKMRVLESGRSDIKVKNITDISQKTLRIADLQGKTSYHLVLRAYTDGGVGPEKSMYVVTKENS

T2: recombinant human gp130 (human, UniProt P40189 23-619, limits assumed)
T2 sequence (looked up): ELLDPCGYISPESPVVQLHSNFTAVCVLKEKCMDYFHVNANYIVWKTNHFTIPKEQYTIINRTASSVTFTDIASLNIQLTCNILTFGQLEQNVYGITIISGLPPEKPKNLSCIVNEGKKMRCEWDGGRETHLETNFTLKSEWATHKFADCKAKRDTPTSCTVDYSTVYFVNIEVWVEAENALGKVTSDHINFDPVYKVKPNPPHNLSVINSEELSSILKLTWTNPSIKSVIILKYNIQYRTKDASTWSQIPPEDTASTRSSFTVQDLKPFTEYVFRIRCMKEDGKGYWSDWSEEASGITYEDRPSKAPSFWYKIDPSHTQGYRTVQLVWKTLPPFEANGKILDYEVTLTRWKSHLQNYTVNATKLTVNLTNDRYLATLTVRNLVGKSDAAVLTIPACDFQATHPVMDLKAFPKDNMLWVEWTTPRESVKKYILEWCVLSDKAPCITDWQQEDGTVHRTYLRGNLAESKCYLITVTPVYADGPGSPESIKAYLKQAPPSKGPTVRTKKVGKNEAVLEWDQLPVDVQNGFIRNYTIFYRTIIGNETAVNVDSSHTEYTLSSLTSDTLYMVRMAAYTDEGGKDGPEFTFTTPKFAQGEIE

B1: human LIF (source not stated) (ligand)
chain: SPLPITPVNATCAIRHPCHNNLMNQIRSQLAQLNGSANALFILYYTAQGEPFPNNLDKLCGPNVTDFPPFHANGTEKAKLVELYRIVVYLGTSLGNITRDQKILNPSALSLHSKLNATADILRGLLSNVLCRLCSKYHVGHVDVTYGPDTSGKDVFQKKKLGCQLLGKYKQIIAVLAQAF
notes: also called hLIF; endogenous LIF of U-251 cells

Columns and labels:
[1] = target: T3, human IL-6 (E. coli) (human, UniProt P05231 30-212, limits assumed); test: BLI (Octet), h5D8 amine-coupled to AR2G sensors, cytokine analyte; legend: ND = no binding
T3 construct: also called huIL-6 (E. coli)
Description: 9.0.0.26 as follows: Amine Reactive 2ndGeneration Biosensors (AR2G) were hydrated for a minimum of 15 minutes in water. […] Kinetics experiments were then performed with the following Dip and Read steps at 30° C., 1000 rpm: vi) 60 seconds Baseline in 1× kinetics buffer; vii) 180 seconds Association of appropriate serial dilutions of a cytokine in 1× kinetics buffer; viii) 300 seconds Dissociation in 1× kinetics buffer; ix) Three Regeneration/Neutralization cycles alternating between 10 mM glycine pH 2.0 and 1× kinetics buffer respectively (5 seconds in each for 3 cycles). Following regeneration, the biosensors were reused for subsequent binding analyses.

[2] = target: T1, recombinant human LIFR; test: BLI (Octet RED96) control experiment, h5D8 on AHC sensors
[3] = target: B1; test: cell-based or functional assay
[4] = target: T2, recombinant human gp130; test: ELISA: LIF pre-incubated with B09, added to a plate coated with gp130, detected through the antibody with peroxidase anti-rat IgG

T3 sequence (P05231 30-212 limits assumed): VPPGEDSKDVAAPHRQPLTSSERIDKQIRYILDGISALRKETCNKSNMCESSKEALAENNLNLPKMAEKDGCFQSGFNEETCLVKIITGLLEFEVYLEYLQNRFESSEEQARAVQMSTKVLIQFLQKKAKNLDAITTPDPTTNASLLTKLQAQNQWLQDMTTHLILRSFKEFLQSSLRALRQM

Row | binding result [1] | binding result [2] | IC50 for biological inhibition (pSTAT3, U-251 cells, serum starved, endogenous LIF) [3] [picomolar] | binding result [4] | Binder
1 | no binding | no binding | 490 | – | h5D8 (humanized 5D8, H2L2) (antibody, V domains shown, Humanized by CDR grafting from rat 5D8; also called G (H2L2); H5D8-1 IgG) VH: QVQLQESGGGLVKPGGSLRLSCAASGFTFSHAWMHWVRQAPGKGLEWVGQIKAKSDDYATYYAESVKGRFTISRDDSKNTLYLQMNSLKTEDTAVYYCTCWEWDLDFWGQGTMVTVSS VL: DIVMTQTPLSSPVTLGQPASISCRSSQSLLDSDGHTYLNWLQQRPGQPPRLLIYSVSNLESGVPDRFSGSGAGTDFTLKISRVEAEDVGVYYCMQATHAPPYTFGQGTKLEIK
2 | – | – | – | binds | B1
